US8003345B2, “Antioxidant pharmaceutical compound, method for producing polypeptide and method of cure” (Institute of Cell Biophysics Russian Academy of Sciences, priority 2002, dated 2011)

Tests used:
[1] = tested on: T-lymphocytes from the spleen of line NRRI rats stimulated with concavalin A; experiment: Proliferation of concanavalin A-stimulated T-lymphocytes (3H-thymidine inclusion); type: cell-based; conditions: 0.1-1.0 mg/ml concentration, against cells stimulated only with concavalin A
Protocol: The cytotoxicity is determined from the influence of recombinant Prx V1hum or of natural rat Prx V1rat on the level of proliferation of line L929 human lymphoblastoma cells and of T-lymphocytes from the spleen of line NRRI rats stimulated with concavalin A.
Cells of two lines with the concentration of 10^4 cells/ml medium were cultivated in RPMI 1640 containing 5% of bovine fetal serum. The stimulation of T-lymphocytes was carried out with the 0.1 μg/ml concentration of concavalin. In the case of T-lymphocytes the proliferation level was determined from the inclusion of ^3H-thymidine. The number of live line L929 cells was determined in a 96-cell plate with the aid of a Trypan stain, followed by scanning on a Multiscan multichannel photometer (LKB, Sweden).

[2] = Distribution of labeled peroxiredoxin in the organism after intravenous injection; type: in vivo, rat; conditions: 10 mg per animal, fluorescein-labeled
Protocol: For detecting the distribution of exogenous peroxiredoxin Prx VI in different tissues of the organism, a recombinant Prx V1hum labeled with fluorescein isocyanate was introduced into the rat's vein in an amount of 10 mg per animal. After definite periods of time the animals were sacrificed, the tissues of different organs were isolated, and luminescent analysis of the obtained samples was carried out. […] Thus, the method of introducing peroxiredoxin Prx VI by intravenous injection makes it possible to increase its content in almost all the tissues of the organism.

[3] = tested on: tracheal epithelium of rat after burn with vapors of hydrochloric acid; experiment: Chemical burn (HCl vapors) of the upper respiratory tract of rat; type: in vivo
Protocol: The therapeutic properties of recombinant peroxiredoxin Prx V1hum in treating the upper respiratory tract of rat 24 hours after a burn were tested on a group of 4 Wistar line rats having a weight of 150-200 grams. The rats were analgized with analgin (100 mg/kg weight) and placed for 10 minutes into an exsiccator saturated with HCl vapors (the exsiccator volume was 10 liters, 20 animals were used). After the chemical burn, the rats were maintained for a definite period of time (40 min, 6 hrs, 1 day, 2 days, 14 days, 30 days), then narcotized with hexenal (300 mg/kg weight), and a sample of the tracheal epithelial tissue was isolated. For histochemical investigations the isolated sample was placed into a fixing solution containing 2% of formaldehyde and 0.5% of glutaraldehyde. The tissue was dehydrated .by sequential routing through ethyl alcohol with increasing concentration (40-100%). The tissue was embedded into LR white resin. The resin was polymerized at room temperature. 0.5 em-thick sections were made on an LKB ultratome (Sweden), using glass knives. The sections were stained with a hematoxylin-eosine and analyzed under a light microscope.
Maximum degradation of the epithelium is observed 24 hours after the burn, the ciliated cells which provide the mucus flow in the trachea being almost absent. Two weeks later a partial restoration of the ciliated cells is observed. […]

[4] = tested on: skin cuts of rats; experiment: Treating skin wounds (cuts) in rats; type: in vivo, rat; conditions: in 5 days; 0.5 mg/ml in 0.15 M NaCl, bandages changed once a day; against control; FIG. 10
Protocol: Rats were preliminarily narcotized by intraperitoneal introduction of hexenal (70 mg/kg). The animals were fixed on an operating table, and then 2-3 mm deep and 1 cm long cuts were made in the skin of both paws with the help of a razor blade. Control cuts were irrigated with physiological solution and a bactericidal plaster was applied; in the case of using peroxiredoxin, the wound was irrigated with a solution of recombinant Prx Vlhum or of its fragment ΔPrx Vlhum in 0.15 M NaCl in 0.5 mg/ml concentration, and a gauze bandage soaked with the same solutions was applied. The bandages were changed once a day.

[5] = tested on: glutamine synthetase of E.coli; conditions: DTT/Fe3+/O2 oxidative system, 3 mM activator, 10 min at 37° C.; FIG. 3
Protocol: Comparison of the protector properties of recombinant full-size Prx Vlhum with the protector properties of natural rat Prx VIrat and with the protector properties of N-terminal ΔPrx V1hum in terms of protecting glutamine synthetase of E.coli from inactivation in a model oxidative system in vitro.
For determining the activity of different types of peroxiredoxins, their ability to protect glutamine synthetase from the DTT/Fe^+3/O2 oxidative system is measured. Glutamine synthetase is isolated from cells of the E.coli DH5α strain (Streicher S. L., Tyler B., 1980) and inactivated in the presence of a Fe^3+/O2 oxidative system and a peroxiredoxin activator—in the model oxidative system generating free radicals (Kim K. et al., 1988). […] The residual activity of glutamine synthetase is assessed by adding to the sample 200 μl of a reaction mixture which comprises: ADP, 0.4 mM; glutamine, 150 mM; K—AsO4, 10 mM; NH2OH, 20 mM; MnCl2, 0.4 mM; HEPES, 100 mM, pH 7.4. […] The protector properties of peroxiredoxin for protecting glutamine synthetase of E.coli from inactivation are determined as the ratio of the remaining activity of the enzyme after the inactivation in the presence of different concentrations of peroxiredoxin to the activity of non-inactivated glutamine synthetase.

[6] = tested on: Wistar line rats subjected to gamma-irradiation; experiment: Survival of rats after gamma-irradiation at a dose of 6 Gy; conditions: for number of rats survived: groups of 6 rats, intravenous before irradiation
Protocol: The radioprotector properties of peroxiredoxin in experiments in vivo are determined on an example of protecting animals from the action of gamma-irradiation in a sublethal dose with an intensity of 6 Gy.
Simultaneous irradiation of all animals (Wistar line rats weighing 200 grams) was carried out on a GUBE apparatus. The exposure dose was 6 Gy. The rats were divided into two groups. The first group of the animals (n=6) was used for control. The animals of the second group (n=6) 30-60 minutes before the irradiation were administered intravenously with 1 mg of peroxiredoxin Prx VI (1 ml of physiological solution at the peroxiredoxin concentration of 1 μg/ml). After the irradiation the animals were kept in common premises with sufficient amount of food, illumination and ventilation. For histological investigation animals with symptoms of worsened general conditions were chose from each group.

B1: Prx VIhum: recombinant full-size human peroxiredoxin Prx VI, 224 amino acids (SEQ ID NO: 1), produced in E.coli (protein)
chain: MPGGLLLGDVAPNFEANTTVGRIRFHDFLGDSWGILFSHPRDFTPVCTTELGRAAKLAPEFAKRNVKLIALSIDSVEDHLAWSKDINAYNCEEPTEKLPFPIIDDRNRELAILLGMLDPAEKDEKGMPVTARVVFVFGPDKKLKLSILYPATTGRNFDEILRVVISLQLTAEKRVATPVDWKDGDSVMVLPTIPEEEAKKLFPKGVFTKELPSGKKYLRYTPQP
- cell proliferation level of T-lymphocytes stimulated with concavalin A [1]: increased approximately twofold
- distribution among organs ([2]; 15 minutes after intravenous injection, luminescent analysis): uniformly distributes among all the organs of the rat, including the brain
- amount in bone marrow ([2]; after intravenous injection): small, compared with other tissues
- regeneration of tracheal epithelium (curative effect) ([3]; 14 days after burn, application started 24 hours after burn, once a day during 5 days, FIG. 7): almost complete regeneration of the ciliary cells of the epithelium
- preservation of tracheal epithelial cells (protector effect) ([3]; application 1 hour after the burn, epithelium 24 hours after chemical burn, FIG. 6): Almost complete preservation of all epithelial cells
- healing of the wound [4]: almost complete healing of the wound
- protector properties: antioxidant characteristics in protecting glutamine synthetase from inactivation [5]: close to the natural rat peroxiredoxin Prx VIrat
- number of rats survived ([6]; 3 months, 6 Gy): 6
- number of rats survived ([6]; 6 months, 6 Gy): 5
- number of rats survived ([6]; 12 months, 6 Gy): 4
- number of rats survived ([6]; 15 months, 6 Gy): 4
- mortality of the rats ([6]; administered before irradiation, 6 Gy, versus control group): essentially lower than in the control group
- general condition of the survived animals ([6]; one year after the irradiation, compared with the control group): differed markedly in favor of the second group
- number of irradiation-associated malignant neoplasms ([6]; single injection into a vein 30 minutes before irradiation, 6 Gy): diminish the number of irradiation -associated malignant neoplasms
